Tests used:
[1] = target: T1, human IL12Rβ1, cell-expressed (human, UniProt P42701 24-662); assay: flow cytometry on isolated CD8+ T cells of donor D863, anti-Flag detection
T1 construct: whole, on cells; in the context of the heterodimeric receptor; also called IL12Rb1

[2] = target: T2, human CD4, cell-expressed (human, UniProt P01730 26-458); assay: FACS, MOLM-13 cells
T2 construct: whole, on cells

[3] = target: T2, human CD4, cell-expressed; assay: FACS, MOLM-13 cells; remark: listed apart in the source
[4] = target: T2, human CD4, cell-expressed; assay: FACS, THP-1 cells
[5] = target: T2, human CD4, cell-expressed; assay: cell-based or functional assay
[6] = target: T2, human CD4, cell-expressed; assay: FACS, human T cells
[7] = target: T2, human CD4, cell-expressed; assay: cell-based or functional assay; remark: listed apart in the source
[8] = target: T2, human CD4, cell-expressed; assay: FACS, Jurkat E6-1 cells (CD4 low)
[9] = target: T2, human CD4, cell-expressed; assay: cell-based or functional assay; remark: listed apart in the source
[10] = target: T2, human CD4, cell-expressed; assay: FACS, Jurkat E6.1 cells (CD4 no or low)
[11] = target: T2, human CD4, cell-expressed; assay: cell-based or functional assay; remark: listed apart in the source
[12] = target: T3, human CXCR4 (on cells, viral lipoparticles or membrane extracts) (human, UniProt P61073 1-352); assay: ELISA on coated hCXCR4 lipoparticles against null lipoparticles, anti-c-myc detection
T3 construct: whole, on cells; also called hCXCR4 VLPs; CXCR4-lip
T3 sequence (P61073 whole entry): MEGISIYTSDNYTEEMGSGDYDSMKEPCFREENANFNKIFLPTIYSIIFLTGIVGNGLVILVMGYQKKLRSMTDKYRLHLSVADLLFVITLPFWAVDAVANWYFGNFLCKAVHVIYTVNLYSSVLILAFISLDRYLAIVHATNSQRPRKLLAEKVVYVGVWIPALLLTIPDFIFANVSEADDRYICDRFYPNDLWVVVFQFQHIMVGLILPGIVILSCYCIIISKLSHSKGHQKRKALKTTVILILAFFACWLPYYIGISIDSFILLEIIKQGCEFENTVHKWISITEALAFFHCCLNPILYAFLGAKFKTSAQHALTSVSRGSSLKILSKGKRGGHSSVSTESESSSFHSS

B1: 3F11 (VHH)
VHH: EVQLVESGGGSVQPGGSLTLSCGTSGRTFNVMGWFRQAPGKEREFVAAVRWSSTGIYYTQYADSVKSRFTISRDNAKNTVYLEMNSLKPEDTAVYYCAADTYNSNPARWDGYDFRGQGTQVTVSS
notes: also called CD4#8; 03F11
binding result [1]: no binding (tested: 250 nM)
EC50 [2]: 0.7 nM
EC50 [3]: 0.6 nM
EC50 [4]: 1 nM
IC50, HIV-1 NL4.3 neutralization, PBMCs [5]: 29.3 nM
EC50 [6]: 0.76 nM
IC50, HIV-1 NL4.3 wt, MT-4 [7]: 34.7 nM
IC50, NL4.3 2G12 res., MT-4 [7]: 23.3 nM
IC50, NL4.3 AMD-3100 res., MT-4 [7]: 22.7 nM
IC50, NL4.3 CD4#8 res., MT-4 [7]: > 6700 nM
IC50, NL4.3 CXCL-12res., MT-4 [7]: 153 nM
IC50, NL4.3 CXCR4#2 res, MT-4 [7]: > 6700 nM
EC50 [8]: 61 nM
IC50, HIV-1 NL4.3 (X4), MT-4 [9]: 66.7 nM
IC50, HIV-1 NL4.3 (X4), PBMC [9]: 580 nM
IC50, HIV-1 NL4.3 (X4), U87 [9]: > 1330 nM
EC50 [10]: 1.1 nM
IC50, HIV-1 HE, MT-4 [11]: 10 nM
IC50, HIV-1 NL4.3, MT-4 [11]: 34.7 nM
IC50, HIV-2 ROD, MT-4 [11]: 22.7 nM
binding result [12]: no binding (tested: 100 nM)
